assay: yeast display, Sf9 membrane polyspecificity reagent, FACS + sequencing; frameworks hold sequencing errors
Method in brief: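 Nanobodies from a synthetic yeast display library (Saccharomyces cerevisiae BJ5465), induced 36–48 hours with galactose, were stained 1 hour at 4 °C with 10% biotinylated, detergent-solubilized Sf9 membrane reagent, enriched on streptavidin microbeads, then FACS-sorted. Anti-HA (expression) and streptavidin (reagent binding) fluorescence set low and high (top ~1%) gates. Polyreactivity labels come from the gate of origin. Genes were colony-PCR amplified, MiSeq 2 × 250 sequenced and filtered by CDR length.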

Sequence	polyreactivity (PSR sort gate)
QVQLVESGGGLVQAGGSLRLSCAASGITFRIYAMGWYRQAPGKEREFVAAINQRGGSTYYADSVKGRFTISRDNAKNTVYLQMNSLKPEDTAVYYCNADYSYVGEYDYWGQGTQVTVSS	low polyreactivity
QVQLVESGGGLVQAGGSLRLSCAASGITFRKYVMGWYRQAPGKERELVATITRNGGTTNYADSVKGRFTISRDNAKNTVYLQMNSLKPEDTAVYYCAAVRRDYDDVYTEYWGQGTQVTVSS	high polyreactivity
QVQLVESGGGLVQAGGSLRLSCAASGITFRNYAMGWYRQAPGKERELVADITTGGSTYADSVKGRFTISRDNAKNTVYLQMNSLKPEDTAVYDCAADRDFRTPRLYYWGQGTQVTVSS	low polyreactivity
QVQLVESGGGLVQAGGSLRLSCAASGITFRRNAMGWYRQAPGTERELVAGISGRGGSTYYADSVKGRFTISRDNAKNTVYLQMNSLKPEDTAVYYCAAVRFRTPTLEYWTRYDYWGQGTQVTVSS	high polyreactivity
QVQLVESGGGLVQAGGSLRLSCAASGITFRRSAMGWYRQAPGKEREVVAAISIRGGRTYYADAVKGRFTISRDNAKNTVYLQMNSLIPEDTAVYYCAADGVYALDVESDYWGLGTQVTVSS	high polyreactivity
QVQLVESGGGLVQAGGSLRLSCAASGITFRRYAMGWYRQAPGKESELVAAITSSGGSTYYADSVKGRFTISRDNAKNTVYLLMISLKPEDTAVYYCAAAFFSQYYLYEYWGQGTQVTVSS	high polyreactivity
QVQLVESGGGLVQAGGSLRLSCAASGITFRRYTMGWYIQAPGKERELVATISLSDGNTYYADSVKGRFTISRDNAKNTVYLQMNSLKPEDTAVYYCNARHTWHQTYDYWGQGTQVTVSS	low polyreactivity
QVQLVESGGGLVQAGGSLRLSCAASGITFRRYTMGWYRQAPGKERELVASISSTGSTNYADSVKGRFTISRDNAKNTVYLQMNSLKPEDTAVYYCAARRPYPYVGYEYWGQGTQVTVSS	high polyreactivity
QVQLVESGGGLVQAGGSLRLSCAASGITFRRYTMGWYRQPPGKERELVATISLSDGNTYYADSVKGRFTISRDNAKNTVYLQMNSLKPEDTAVYYCNARHTWHQTYDYWGQGTQVTVSS	low polyreactivity
QVQLVESGGGLVQAGGSLRLSCAASGITFRSNAMGWYRQAPGKERELVATISYRGASTYYADSVKGRFTISRDNAKNTVYLQMNSLKPEYTSVYYCNVRNRYWRSRVDYWGQGTQVTVSS	high polyreactivity
QVQLVESGGGLVQAGGSLRLSCAASGITFRSYAMGWYRQAPGKERELVATISGRGGRTYYADSVKGRFTISRDNAKNTVYLQMNSLKPEDTAVYYCAARLHSYGVGVDYWGQGTQVSVSS	high polyreactivity
QVQLVESGGGLVQAGGSLRLSCAASGITFRSYAMGWYRQAPGKERELVATISWSGGITYYADSVKGRFTISRDNAKITVYLQMNSLKPEDTAVYYCAKASQSWGRDDYYYWGQGTQLTVSS	low polyreactivity
QVQLVESGGGLVQAGGSLRLSCAASGITFRSYEMGWYRAAPAKERELVAAISSGGSRTYYADSVKGRYTISRDNAKKTVYLQMNSLKPEDTAVYYCAATDRSDVYKGAYYYWGQGTQVTVSS	high polyreactivity
QVQLVESGGGLVQAGGSLRLSCAASGITFRTYAMGWYRQAPGKERELVAAISGSSTSTYYADSVKGRFTISRDNAKNTVYLLMNSLKPEDTAVYYCAAGYRVSVYRYYYWGQGTQVTVSS	high polyreactivity
QVQLVESGGGLVQAGGSLRLSCAASGITFRTYAMGWYRQAPGKERELVAAISGSSTSTYYADSVKGRFTISRDNAKNTVYLQLNSLKPEDSAVYYCAAGYRVSVYRYYYWGQGTQVTVSS	high polyreactivity
QVQLVESGGGLVQAGGSLRLSCAASGITFRYYAMGWYRQAPGKERELVAAISYSGGSTYYADSVKGRFTISRDNAKNTVYLQMNRLKPEDTAVYYCNRVWTRLVTYPEYDYWGQGTQVTVSS	high polyreactivity
QVQLVESGGGLVQAGGSLRLSCAASGITFRYYAMGWYRQAPGKERELVASITSGGVNTYYADSVKGRFTISRDNAKNTVYLQMNSLKPEDTAVYYCATRFSYSALGGYDYWGQGTQVTVSS	low polyreactivity
QVQLVESGGGLVQAGGSLRLSCAASGITFRYYAMGWYRQAPGKERELVATINWSGGTTHYADSVKGRFTISRENAKNTVYLQMNSLKPEDTAVYYCAADPWQYKLGWPPFTYDYWGQGTQVTVSS	high polyreactivity
QVQLVESGGGLVQAGGSLRLSCAASGITFRYYAMGWYRQAPGKERELVAVISTSGGSTYYADSVKGRFTISRDNAKNTVFLQMNSLKPEDTAVYYCAVVWPYYERYYYWGQGTQVTVSS	high polyreactivity
QVQLVESGGGLVQAGGSLRLSCAASGITFRYYTMGWYRQAPGKERELVAAITTGGSTNYADSVKGRFTISRDNAKNTVYLQMNSLKPEDTAVYYCAATYKYITRGYLYDYWGQGTQVTVSS	high polyreactivity
QVQLVESGGGLVQAGGSLRLSCAASGITFSEYAMGLYRQAPGKERELVAAITSGGNTYYADSVKGRFTISRDNAKNTVYLQMNSLKPEDTAVYYCAATFSSAFAYYYWGQGTQVTVSS	low polyreactivity
QVQLVESGGGLVQAGGSLRLSCAASGITFSFYALGWYRHAPGKERELVAAISRGGASTYYADSVKGRFTISRDNAKNTVYLQMNSLKPEDSAVYYCAALSVDERYDYWGQGTQVTVSS	low polyreactivity
QVQLVESGGGLVQAGGSLRLSCAASGITFSFYAMGWYRQAPGKERELVAAISWNGDSTYYADSVKGRFTISRDNAKNTVYLQMNSLKPEDTAVYYCNAEFVAWYYYEDQDGDYWGQGTQVTVSS	high polyreactivity
QVQLVESGGGLVQAGGSLRLSCAASGITFSGNAMGWYRQAPGKARELVATISQSGGRTYYADSVNGRFTISRDNAKHTVYLQMNSLKPEDTAVYYCARRRMRYTDRGYYYWGQGTQVTVSS	high polyreactivity
QVQLVESGGGLVQAGGSLRLSCAASGITFSGYDMGWYRQAPGKERELVADITISTGSTYYADSVKGRFTISRDNANNTVYLQMNSLKPEDTAVYYCAADWQQDRTVVLPSWGHAYDSWGQGTQVTVSS	low polyreactivity
QVQLVESGGGLVQAGGSLRLSCAASGITFSKYAMGWFRHAPGKERELFASITWSGTSTYYADSVKGRFTISRDNAKNTVYLQMKSLKPEDTAVYYCAADGWGTFWRAQNGYGYEHDYWGKGTQVTVSS	low polyreactivity
QVQLVESGGGLVQAGGSLRLSCAASGITFSLYAMGWYRQAPGKERELVAAIDWSSGSTYYADSVKGRFTISRDNAKNTVYLQMNSLKPEDTAVYYCAAEYVHHASGDFSTLYYYWGQGTQVTVSS	low polyreactivity
QVQLVESGGGLVQAGGSLRLSCAASGITFSPYTMGCYRQAPGKERELVAAITDGAITYYADSVKGRFTISRDNAKNTVYLQMNSLKPEDTAVYYCAAAAWGTDPYSTDYATYDYWGQGTQVTVSS	low polyreactivity
QVQLVESGGGLVQAGGSLRLSCAASGITFSRKVMGWFRQAPGKERELVAAISRSGGRTYYADSVKGRFTISRDTAKNTVYLQMNSLKPEDTAVYYCNRDIGGTSVLDDYWGQGTQVTVSS	low polyreactivity
QVQLVESGGGLVQAGGSLRLSCAASGITFSRNAMGWYRQAPGKERELVATITSGGSTNYADSVKGRFTISRDNAKNTVYLQMNSLKPEDTAGYYCNAVWNTFISGRSYDYWGQGTQVTVSS	low polyreactivity

— the nanobody polyreactivity screen of Harvey et al. (2022)
